In article PMC6171931:

Molecular target: HCV NS5B (RNA-dependent RNA polymerase), JFH1 (Hepatitis C virus (JFH1))
Test: proximity ligation

ATG5-12 conjugate (from UniProt Q9H1Y0 1-275; O94817 1-140) (complex)
PLA interaction signals per infected cell (signals per infected cell): 380
